Measurements as given in publication PMC6449189.
Where two headings read alike, the source gives them in different places.

Tests used:
Test in all cases: EMSA
[1] = biological target: T1, LbCas12a (Lachnospiraceae bacterium ND2006, UniProt A0A5S8WF58 1-1228)
[2] = biological target: T1, LbCas12a; remark: listed apart in the source
[3] = biological target: T1, LbCas12a; remark: listed apart in the source
[4] = biological target: T1, LbCas12a; remark: listed apart in the source

Binder: AAUUUCUACUAAGUGUAGAUAAAGUGCUCAUCAUUGGAAAACGU (structured_RNA) [LbCas12a crRNA (24-nt T1) rGJK_007]
- Kd [1]: 16.4 ± 2.1 nM
- Kd [2]: 35.8 ± 4.4 nM
- Kd [3]: 17.6 ± 2.4 nM
- Kd [4]: 38.9 ± 4.7 nM
